In article PMC11087797 (2024) one finds Kd data, which are given here for two molecules.

Targets include LA1(3-11)-HLA-E*01:03; LA34(3-11)-HLA-E*01:03; LCw3(3-11)-HLA-E*01:03; LA80(3-11)-HLA-E*01:03; LB7(3-11)-HLA-E*01:03.
Holding throughout (test): SPR; peptide …
Background: In SPR one partner is held on a chip, and binding of the other changes the refractive index at the surface.

The term Kd denotes the concentration at which binding is half-saturated. A higher Kd goes with a looser complex.

B1: soluble CD94-NKG2C NK cell receptor ectodomains (receptor)
chain 1: KNSFTKLSIEPAFTPGPNIELQKDSDCCSCQEKWVGYRCNCYFISSEQKTWNESRHLCASQKSSLLQLQNTDELDFMSSSQQFYWIGLSYSEEHTAWLWENGSALSQYLFPSFETFNTKNCIAYNPNGNALDESCEDKNRYICKQQLI
chain 2: not shown
In the case of B1, the Kd was 11.3 µM in the assay with LA1(3-11)-HLA-E*01:03; 13.5 µM with LA34(3-11)-HLA-E*01:03; 22 µM in the assay with LCw3(3-11)-HLA-E*01:03; 42.8 µM in the assay with LA80(3-11)-HLA-E*01:03; 25.5 µM with LB7(3-11)-HLA-E*01:03.

B2: soluble CD94-NKG2A NK cell receptor ectodomains (receptor)
chain 1: B1 chain 1
chain 2: not shown
On to B2, for which the Kd worked out at 1.5 µM with LA1(3-11)-HLA-E*01:03; 1.8 µM in the assay with LA34(3-11)-HLA-E*01:03; 1.5 µM with LCw3(3-11)-HLA-E*01:03; 2.1 µM in the assay with LA80(3-11)-HLA-E*01:03; 3.3 µM with LB7(3-11)-HLA-E*01:03.
